According to patent US12692310B2, “ASIC1 channel antagonist antibody” (ShanghaiTech University, priority 2019, dated 2026):

Columns and labels:
Experiment in all cases: Subtype selectivity, FACS binding, transfected CHO-K1 cells
Type in all cases: cell-based
[1] = molecular target: T1, hASIC1b (Homo sapiens, UniProt P78348)
T1 construct: expressed in transfected cells; host or cells: CHO-K1, transient
T1 sequence (P78348 1-562 isoform P78348-3): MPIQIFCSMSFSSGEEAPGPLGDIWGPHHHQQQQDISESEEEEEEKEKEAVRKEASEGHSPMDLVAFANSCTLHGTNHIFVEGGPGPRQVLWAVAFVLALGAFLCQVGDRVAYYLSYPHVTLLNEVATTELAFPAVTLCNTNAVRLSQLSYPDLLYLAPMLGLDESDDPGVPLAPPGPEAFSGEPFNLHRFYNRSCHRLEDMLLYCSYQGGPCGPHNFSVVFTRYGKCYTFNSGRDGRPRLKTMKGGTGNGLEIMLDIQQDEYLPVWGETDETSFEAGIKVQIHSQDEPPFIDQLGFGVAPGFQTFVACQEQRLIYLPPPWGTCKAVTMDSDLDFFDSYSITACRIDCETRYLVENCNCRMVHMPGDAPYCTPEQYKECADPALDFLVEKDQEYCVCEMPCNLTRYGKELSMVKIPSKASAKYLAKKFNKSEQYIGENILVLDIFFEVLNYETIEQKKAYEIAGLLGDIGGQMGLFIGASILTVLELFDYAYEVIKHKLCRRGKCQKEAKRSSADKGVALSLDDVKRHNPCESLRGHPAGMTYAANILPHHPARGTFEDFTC
Protocol: (§1) To test the species and subtype selectivity of ASC06-IgG1, vectors encoding human ASIC1b-eYFP fusion, rat ASIC1a-eYFP fusion, mouse ASIC1a-eYFP fusion, hASIC2a-eYFP fusion, hASIC2b-eYFP fusion, and hASIC3a-eYFP fusion were constructed. The CHO-K1 cells were transiently transfected with these plasmids. FACS binding assay and immunocytochemistry (ICC) were carried out to determine if ASC06-IgG1 is able to bind to the cell surface-expressed ASIC homologs and isotypes.

[2] = molecular target: T2, hASIC2a/2b (Homo sapiens, UniProt Q16515)
T2 construct: expressed in transfected cells; host or cells: CHO-K1, transient
T2 sequence (Q16515 1-512): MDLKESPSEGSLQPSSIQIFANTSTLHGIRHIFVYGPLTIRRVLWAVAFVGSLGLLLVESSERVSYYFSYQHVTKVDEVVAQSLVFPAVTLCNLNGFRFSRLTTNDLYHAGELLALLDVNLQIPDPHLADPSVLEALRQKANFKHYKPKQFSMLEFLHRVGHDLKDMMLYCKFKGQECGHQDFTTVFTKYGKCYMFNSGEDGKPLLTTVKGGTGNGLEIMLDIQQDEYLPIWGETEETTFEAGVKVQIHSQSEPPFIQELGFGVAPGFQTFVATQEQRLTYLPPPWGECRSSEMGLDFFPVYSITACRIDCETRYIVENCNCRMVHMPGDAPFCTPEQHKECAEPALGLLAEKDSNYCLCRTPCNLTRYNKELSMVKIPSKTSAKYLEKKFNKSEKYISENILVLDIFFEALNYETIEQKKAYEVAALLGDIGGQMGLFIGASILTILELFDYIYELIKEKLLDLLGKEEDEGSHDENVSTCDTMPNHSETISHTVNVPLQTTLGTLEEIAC
T2 sequence (Q16515 1-563 isoform Q16515-2): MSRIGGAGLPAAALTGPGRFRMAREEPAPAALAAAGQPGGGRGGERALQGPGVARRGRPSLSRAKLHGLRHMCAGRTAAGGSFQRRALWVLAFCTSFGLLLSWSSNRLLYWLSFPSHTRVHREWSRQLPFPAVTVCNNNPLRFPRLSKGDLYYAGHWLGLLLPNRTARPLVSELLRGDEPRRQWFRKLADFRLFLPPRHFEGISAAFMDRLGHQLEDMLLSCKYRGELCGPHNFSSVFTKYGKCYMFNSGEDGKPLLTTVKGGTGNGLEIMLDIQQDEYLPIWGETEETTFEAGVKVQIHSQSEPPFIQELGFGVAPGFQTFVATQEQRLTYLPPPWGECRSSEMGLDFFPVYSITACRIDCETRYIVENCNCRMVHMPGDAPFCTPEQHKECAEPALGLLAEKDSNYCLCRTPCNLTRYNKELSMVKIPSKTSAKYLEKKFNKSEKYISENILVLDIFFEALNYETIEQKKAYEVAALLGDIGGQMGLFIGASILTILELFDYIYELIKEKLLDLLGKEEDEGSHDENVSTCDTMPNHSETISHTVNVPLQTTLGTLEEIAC
Protocol: as §1

[3] = molecular target: T3, hASIC2a (Homo sapiens, UniProt Q16515)
T3 construct: expressed in transfected cells; host or cells: CHO-K1, transient
T3 sequence (Q16515 1-512): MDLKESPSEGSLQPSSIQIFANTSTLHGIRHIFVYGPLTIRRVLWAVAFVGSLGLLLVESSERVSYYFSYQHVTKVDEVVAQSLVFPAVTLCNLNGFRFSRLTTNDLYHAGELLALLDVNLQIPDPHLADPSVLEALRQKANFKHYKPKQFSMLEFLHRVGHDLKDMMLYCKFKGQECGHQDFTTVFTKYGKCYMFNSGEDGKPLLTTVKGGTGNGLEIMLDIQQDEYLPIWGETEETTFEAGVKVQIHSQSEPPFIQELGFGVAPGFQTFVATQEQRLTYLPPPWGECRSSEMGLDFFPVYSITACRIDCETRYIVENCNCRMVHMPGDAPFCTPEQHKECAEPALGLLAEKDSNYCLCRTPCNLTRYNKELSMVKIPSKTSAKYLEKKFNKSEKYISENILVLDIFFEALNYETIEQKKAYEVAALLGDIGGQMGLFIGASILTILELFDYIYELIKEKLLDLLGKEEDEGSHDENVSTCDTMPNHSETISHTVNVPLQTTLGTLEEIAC
Protocol: as §1

[4] = molecular target: T4, hASIC3a (Homo sapiens, UniProt Q9UHC3)
T4 construct: expressed in transfected cells; host or cells: CHO-K1, transient
T4 sequence (Q9UHC3 1-531): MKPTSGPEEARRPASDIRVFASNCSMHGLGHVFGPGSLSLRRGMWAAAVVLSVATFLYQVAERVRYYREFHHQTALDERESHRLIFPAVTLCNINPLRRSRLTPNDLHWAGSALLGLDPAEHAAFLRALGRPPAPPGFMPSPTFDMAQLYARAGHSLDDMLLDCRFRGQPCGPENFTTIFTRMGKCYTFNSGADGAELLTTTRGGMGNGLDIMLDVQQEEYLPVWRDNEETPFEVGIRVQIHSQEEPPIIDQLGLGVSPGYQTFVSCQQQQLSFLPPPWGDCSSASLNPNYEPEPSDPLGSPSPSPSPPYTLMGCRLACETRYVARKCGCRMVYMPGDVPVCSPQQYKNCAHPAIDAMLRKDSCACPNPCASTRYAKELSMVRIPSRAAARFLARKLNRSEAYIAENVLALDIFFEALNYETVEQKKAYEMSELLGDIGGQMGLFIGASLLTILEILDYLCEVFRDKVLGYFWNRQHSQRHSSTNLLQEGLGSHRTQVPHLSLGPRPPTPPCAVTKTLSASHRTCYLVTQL
Protocol: as §1

B1: ASC06-IgG1: ASC06 antibody converted into a full length IgG1 form (antibody, V domains shown)
VH: QVQLQQSGGGLVQPGGSLRLSCAASGFTFSSYAMSWVRQAPGKGLEWVSAISGSGGSTYYADSVKGRFTISRDNSKNTLYLQMNSLRAEDTAVYYCAKDSFYGYSKGDWGQGTLVTVSS
VL: QSALTQPASVSGSPGQSITISCTGTSSDVGAYNYVSWYQQQPGKAPKLMIYGVSNRPSGVSNRFSGSKSGNAASLTISGLQAEDEADYYCSSYTSSSTYVFGTGTKLTVLG
not: FACS recognition of hASIC1b [1] | FACS recognition of hASIC2a/2b [2] | FACS recognition of hASIC2a [3] | FACS recognition of hASIC3a [4]
